Values of other authors as cited in article PMC5964610.

Molecular target: FER (Arabidopsis thaliana) (UniProt Q9SCZ4)
Chain of UniProt Q9SCZ4 (Q9SCZ4 28-447): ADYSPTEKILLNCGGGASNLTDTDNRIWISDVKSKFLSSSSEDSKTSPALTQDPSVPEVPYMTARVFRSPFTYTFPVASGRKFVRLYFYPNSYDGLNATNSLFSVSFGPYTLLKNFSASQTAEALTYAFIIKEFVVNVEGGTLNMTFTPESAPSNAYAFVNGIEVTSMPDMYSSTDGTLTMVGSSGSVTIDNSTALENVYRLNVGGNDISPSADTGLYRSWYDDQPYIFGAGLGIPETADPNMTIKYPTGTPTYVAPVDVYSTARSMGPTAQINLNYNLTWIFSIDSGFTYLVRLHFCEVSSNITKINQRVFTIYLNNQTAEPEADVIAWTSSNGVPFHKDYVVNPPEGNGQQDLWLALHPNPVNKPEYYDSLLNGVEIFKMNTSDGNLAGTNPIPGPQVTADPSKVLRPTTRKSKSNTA

Kd: 310 nM
Substance: RALF23 (from UniProt Q9LUS7)
